From patent publication CN112300289A (UNIV CHINA PHARMA, dated 2021)

Columns and labels:
TNFα = assay: cell-based or functional assay
整合素αvβ3 = molecular target: T1, 整合素αvβ3 (human, UniProt P06756 31-1048; P05106 27-788); assay: concluded from the MDA-MB-231 cell adhesion assay; no direct binding assay
T1 construct: whole, on cells; The adhesion assay used whole MDA-MB-231 cells; also called 整合素αvβ3受体; 玻连蛋白(Vitronectin,VN)受体
T1 sequence (P06756 31-1048, chain 1 of 2): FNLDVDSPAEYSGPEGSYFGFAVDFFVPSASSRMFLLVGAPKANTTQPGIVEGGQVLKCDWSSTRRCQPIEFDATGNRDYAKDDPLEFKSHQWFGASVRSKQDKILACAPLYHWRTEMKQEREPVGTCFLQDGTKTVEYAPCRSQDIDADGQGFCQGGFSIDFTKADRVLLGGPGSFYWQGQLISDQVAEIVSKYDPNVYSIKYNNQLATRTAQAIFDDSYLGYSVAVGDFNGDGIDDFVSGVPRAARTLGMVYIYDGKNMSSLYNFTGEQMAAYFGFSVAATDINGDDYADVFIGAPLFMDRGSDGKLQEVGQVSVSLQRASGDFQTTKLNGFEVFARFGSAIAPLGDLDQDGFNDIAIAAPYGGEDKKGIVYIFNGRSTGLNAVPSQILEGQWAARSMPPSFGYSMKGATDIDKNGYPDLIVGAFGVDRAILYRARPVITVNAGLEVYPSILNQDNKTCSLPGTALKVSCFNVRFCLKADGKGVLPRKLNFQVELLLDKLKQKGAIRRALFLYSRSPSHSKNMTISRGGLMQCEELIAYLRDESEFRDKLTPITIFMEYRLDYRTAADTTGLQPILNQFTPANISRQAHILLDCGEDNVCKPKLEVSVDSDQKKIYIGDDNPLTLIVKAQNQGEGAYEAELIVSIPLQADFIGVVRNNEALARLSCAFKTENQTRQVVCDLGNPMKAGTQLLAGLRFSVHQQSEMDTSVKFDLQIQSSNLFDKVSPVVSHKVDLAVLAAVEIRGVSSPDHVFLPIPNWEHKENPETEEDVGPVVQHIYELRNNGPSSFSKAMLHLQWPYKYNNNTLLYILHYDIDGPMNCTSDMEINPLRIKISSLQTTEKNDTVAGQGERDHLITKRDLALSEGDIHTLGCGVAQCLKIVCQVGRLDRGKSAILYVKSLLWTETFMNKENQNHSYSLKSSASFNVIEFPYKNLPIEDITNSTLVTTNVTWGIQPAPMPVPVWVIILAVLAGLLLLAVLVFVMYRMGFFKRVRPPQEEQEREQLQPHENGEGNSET
T1 sequence (P05106 27-788, chain 2 of 2): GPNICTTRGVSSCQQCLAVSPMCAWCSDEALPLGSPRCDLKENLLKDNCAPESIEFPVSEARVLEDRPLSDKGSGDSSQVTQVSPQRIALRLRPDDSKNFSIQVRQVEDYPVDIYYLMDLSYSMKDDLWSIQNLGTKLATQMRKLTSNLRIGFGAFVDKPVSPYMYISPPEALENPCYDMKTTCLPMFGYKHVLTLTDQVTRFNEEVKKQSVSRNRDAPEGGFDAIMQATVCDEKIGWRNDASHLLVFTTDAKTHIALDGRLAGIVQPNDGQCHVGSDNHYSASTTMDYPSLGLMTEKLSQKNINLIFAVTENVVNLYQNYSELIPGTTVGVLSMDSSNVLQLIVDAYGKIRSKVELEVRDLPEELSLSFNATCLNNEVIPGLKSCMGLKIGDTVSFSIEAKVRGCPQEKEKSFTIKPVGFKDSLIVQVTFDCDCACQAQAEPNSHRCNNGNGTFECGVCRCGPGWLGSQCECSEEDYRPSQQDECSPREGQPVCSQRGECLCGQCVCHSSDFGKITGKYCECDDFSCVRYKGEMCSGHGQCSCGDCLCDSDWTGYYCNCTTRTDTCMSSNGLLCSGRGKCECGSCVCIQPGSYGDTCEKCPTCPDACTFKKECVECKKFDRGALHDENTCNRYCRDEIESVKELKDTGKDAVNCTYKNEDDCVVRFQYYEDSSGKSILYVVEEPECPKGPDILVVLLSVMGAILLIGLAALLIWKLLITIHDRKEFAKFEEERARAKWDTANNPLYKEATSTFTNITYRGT

Sequence of TNFα (P01375 77-233): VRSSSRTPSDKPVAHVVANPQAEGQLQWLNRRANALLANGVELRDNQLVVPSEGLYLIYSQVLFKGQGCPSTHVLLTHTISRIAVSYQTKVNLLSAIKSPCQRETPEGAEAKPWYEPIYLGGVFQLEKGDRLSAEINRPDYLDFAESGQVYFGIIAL

Row | Binder | IC50, inhibition of TNFα cytotoxicity on L929 cells (MTT) (TNFα) [nM] | binding result (整合素αvβ3)
1 | RGD4C融合抗TNFα纳米抗体 N端-VHH-Linker-RGD4C-6HIS-C端 (VHH, also called V-L-R-H; RGD4C-anti-TNFα-Nanobody) VHH: QVQLVESGGGLVQAGGSLRLSCTASGQTSSTADMGWFRQPPGKGREFVARISGIDGTTYYDEPVKGRFTISRDKAQNTVYLQMDSLKPEDTAVYYCRSPRYADQWSAYDYWGQGTQVTVSS | 0.106 | binds
2 | RGD4C融合抗TNFα纳米抗体 N端-VHH-6HIS-Linker-RGD4C-C端 (VHH) VHH: QVQLVESGGGLVQAGGSLRLSCTASGQTSSTADMGWFRQPPGKGREFVARISGIDGTTYYDEPVKGRFTISRDKAQNTVYLQMDSLKPEDTAVYYCRSPRYADQWSAYDYWGQGTQVTVSS | 0.113 | 
3 | RGD4C融合抗TNFα纳米抗体 N端-RGD4C-Linker-6HIS-VHH-C端 (VHH) VHH: QVQLVESGGGLVQAGGSLRLSCTASGQTSSTADMGWFRQPPGKGREFVARISGIDGTTYYDEPVKGRFTISRDKAQNTVYLQMDSLKPEDTAVYYCRSPRYADQWSAYDYWGQGTQVTVSS | 0.187 | 
